# In patent US20230203107A1, “PEPTIDE FOR TREATING SEPSIS DERIVED FROM RV3364C PROTEIN OF MYCOBACTERIUM TUBERCULOSIS” (priority 2021, published 2023):
# T1: endogenous ZBTB46 of mouse macrophages (BMDM) (mouse, UniProt Q8BID6 1-600)
# T1 sequence: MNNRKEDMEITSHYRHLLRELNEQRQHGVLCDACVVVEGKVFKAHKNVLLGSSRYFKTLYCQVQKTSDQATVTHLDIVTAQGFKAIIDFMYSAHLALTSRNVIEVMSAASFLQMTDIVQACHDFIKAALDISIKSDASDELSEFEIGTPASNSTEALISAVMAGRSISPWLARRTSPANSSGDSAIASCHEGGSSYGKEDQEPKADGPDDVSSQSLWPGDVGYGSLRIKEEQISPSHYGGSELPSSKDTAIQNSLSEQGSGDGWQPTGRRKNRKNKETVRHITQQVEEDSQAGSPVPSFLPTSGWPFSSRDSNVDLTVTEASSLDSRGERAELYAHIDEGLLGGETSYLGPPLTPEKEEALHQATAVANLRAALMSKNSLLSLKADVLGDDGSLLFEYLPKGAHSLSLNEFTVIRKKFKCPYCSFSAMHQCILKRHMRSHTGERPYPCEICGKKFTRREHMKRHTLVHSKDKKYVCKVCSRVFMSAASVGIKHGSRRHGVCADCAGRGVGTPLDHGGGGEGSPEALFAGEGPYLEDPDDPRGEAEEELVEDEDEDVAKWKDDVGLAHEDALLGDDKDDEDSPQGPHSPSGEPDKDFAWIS
# T2: endogenous EGFLAM of mouse macrophages (BMDM) (mouse, UniProt Q4VBE4 25-1017)
# T2 sequence: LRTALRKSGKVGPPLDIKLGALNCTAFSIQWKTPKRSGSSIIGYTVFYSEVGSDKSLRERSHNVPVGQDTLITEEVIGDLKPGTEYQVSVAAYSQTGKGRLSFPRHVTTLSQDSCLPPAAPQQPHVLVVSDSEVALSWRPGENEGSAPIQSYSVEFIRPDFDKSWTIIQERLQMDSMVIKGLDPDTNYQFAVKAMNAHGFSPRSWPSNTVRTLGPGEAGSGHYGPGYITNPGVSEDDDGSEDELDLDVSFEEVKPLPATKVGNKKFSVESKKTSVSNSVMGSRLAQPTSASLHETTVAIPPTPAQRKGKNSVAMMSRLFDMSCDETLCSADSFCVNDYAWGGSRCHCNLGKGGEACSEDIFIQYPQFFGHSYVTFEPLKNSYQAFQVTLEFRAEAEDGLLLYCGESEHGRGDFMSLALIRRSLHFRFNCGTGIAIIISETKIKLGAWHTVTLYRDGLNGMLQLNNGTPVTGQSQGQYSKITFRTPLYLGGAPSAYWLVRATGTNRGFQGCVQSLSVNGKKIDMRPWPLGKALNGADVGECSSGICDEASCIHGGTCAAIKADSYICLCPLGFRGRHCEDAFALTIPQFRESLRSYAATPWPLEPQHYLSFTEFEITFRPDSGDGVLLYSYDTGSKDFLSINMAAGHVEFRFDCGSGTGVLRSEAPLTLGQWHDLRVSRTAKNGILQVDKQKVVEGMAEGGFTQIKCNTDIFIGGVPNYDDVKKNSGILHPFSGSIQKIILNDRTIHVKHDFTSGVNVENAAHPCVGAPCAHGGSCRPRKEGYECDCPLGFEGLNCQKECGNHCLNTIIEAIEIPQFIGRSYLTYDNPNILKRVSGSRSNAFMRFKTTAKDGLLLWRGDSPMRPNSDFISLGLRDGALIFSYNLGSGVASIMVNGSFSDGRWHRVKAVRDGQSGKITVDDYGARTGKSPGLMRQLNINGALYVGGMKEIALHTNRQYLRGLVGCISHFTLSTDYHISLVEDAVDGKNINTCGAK
# T3: ZBTB46 (zinc finger and BTB domain-containing 46), full-length recombinant human protein on the HuProt … (human, UniProt Q86UZ6 1-589)
# T3 sequence: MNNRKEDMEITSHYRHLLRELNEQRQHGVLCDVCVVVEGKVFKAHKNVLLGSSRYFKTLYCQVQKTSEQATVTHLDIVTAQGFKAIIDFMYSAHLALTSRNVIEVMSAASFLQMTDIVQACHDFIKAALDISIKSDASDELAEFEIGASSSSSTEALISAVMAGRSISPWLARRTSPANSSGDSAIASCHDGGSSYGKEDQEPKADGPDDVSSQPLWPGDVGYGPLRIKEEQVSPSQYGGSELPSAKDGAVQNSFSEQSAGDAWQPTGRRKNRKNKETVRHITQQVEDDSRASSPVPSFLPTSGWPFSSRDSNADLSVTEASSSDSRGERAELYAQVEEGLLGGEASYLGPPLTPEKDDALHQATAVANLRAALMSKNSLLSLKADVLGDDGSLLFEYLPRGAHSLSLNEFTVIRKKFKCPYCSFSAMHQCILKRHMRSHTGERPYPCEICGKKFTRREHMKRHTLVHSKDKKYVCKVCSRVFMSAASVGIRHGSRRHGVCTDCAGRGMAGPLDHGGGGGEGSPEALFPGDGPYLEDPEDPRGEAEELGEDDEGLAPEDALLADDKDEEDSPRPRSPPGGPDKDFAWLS
# B1: recombinant Rv3364c (rRv3364c) protein, N-terminal 6xHis tag (other)
# chain: MKARLPDSPLDWLVSKFAREVPGVAHALLVSVDGLPVAASEHLPRERADQLAAVTSGLASLAGGAAQLFDGGQVLQSVVEMQNGYLLLMQVGDGSALAALAATGCDIGQIGYEMAILVERVGGVVQSCRR
# notes: also called His-rRv3364c; not shown: N-terminal 6xHis tag from the pRSFDuet-1 vector
# Tests used:
# [1] = molecular target: T4, interaction between SNX9 and p47phox (Homo sapiens, UniProt Q9Y5X1); format: cell-based; settings: HEK293T cells, Flag-Rv3364c 1, 5, 10 μg, 12 hours
# T4 construct: different regions 1-595, 1-250, 250-361, and 392-595 of SNX9; p47phox plasmid as in Biomaterials 2016, 89, 1-13; host or cells: HEK293T
# T4 sequence (Q9Y5X1 whole entry): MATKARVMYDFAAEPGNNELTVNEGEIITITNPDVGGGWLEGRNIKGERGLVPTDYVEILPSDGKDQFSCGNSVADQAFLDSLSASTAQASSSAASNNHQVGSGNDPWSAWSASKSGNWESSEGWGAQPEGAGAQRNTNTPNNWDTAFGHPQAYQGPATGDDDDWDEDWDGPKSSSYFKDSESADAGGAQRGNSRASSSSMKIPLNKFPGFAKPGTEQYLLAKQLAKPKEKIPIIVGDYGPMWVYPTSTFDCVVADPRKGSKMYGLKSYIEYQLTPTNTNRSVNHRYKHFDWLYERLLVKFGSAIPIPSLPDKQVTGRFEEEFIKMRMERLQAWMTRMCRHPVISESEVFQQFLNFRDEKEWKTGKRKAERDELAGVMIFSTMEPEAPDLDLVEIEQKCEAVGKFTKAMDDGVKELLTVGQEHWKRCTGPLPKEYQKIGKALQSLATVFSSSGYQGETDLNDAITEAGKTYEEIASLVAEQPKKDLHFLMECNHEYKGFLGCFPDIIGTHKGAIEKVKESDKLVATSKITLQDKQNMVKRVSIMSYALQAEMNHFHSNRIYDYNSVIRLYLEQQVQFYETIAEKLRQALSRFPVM
# [2] = molecular target: T5, interaction between SNX9 and Rv3364c (Homo sapiens, UniProt Q9Y5X1); format: cell-based
# T5 construct: different regions 1-595, 1-250, 250-361, and 392-595 of SNX9; host or cells: 293 / HEK293T
# T5 sequence (Q9Y5X1 whole entry): as above
# [3] = molecular target: T6, interaction between YEATS4 and Rv3364c (Homo sapiens, UniProt O95619); format: cell-based
# T6 construct: host or cells: 293 / HEK293T
# T6 sequence (O95619 whole entry): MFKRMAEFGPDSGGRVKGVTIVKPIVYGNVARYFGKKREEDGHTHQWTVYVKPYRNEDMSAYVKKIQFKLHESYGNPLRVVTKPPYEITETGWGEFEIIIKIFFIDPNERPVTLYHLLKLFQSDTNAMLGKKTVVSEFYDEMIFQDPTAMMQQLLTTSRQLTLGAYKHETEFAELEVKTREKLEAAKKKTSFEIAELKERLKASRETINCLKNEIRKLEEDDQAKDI
# [4] = molecular target: T1, endogenous ZBTB46 of mouse macrophages …; assay: anti-His co-IP from BMDM treated with rRv3364c, anti-ZBTB46 blot
# [5] = molecular target: T2, endogenous EGFLAM of mouse macrophages …; assay: anti-His co-IP from BMDM treated with rRv3364c, anti-EGFLAM blot
# [6] = molecular target: T7, endogenous SNX9 of mouse macrophages (BMDM, Raw264.7) (mouse, UniProt Q91VH2 1-595); assay: anti-His co-IP from BMDM treated with 1 ug/ml rRv3364c, anti-SNX9 blot
# T7 construct: also called SNC9
# T7 sequence (Q91VH2 whole entry): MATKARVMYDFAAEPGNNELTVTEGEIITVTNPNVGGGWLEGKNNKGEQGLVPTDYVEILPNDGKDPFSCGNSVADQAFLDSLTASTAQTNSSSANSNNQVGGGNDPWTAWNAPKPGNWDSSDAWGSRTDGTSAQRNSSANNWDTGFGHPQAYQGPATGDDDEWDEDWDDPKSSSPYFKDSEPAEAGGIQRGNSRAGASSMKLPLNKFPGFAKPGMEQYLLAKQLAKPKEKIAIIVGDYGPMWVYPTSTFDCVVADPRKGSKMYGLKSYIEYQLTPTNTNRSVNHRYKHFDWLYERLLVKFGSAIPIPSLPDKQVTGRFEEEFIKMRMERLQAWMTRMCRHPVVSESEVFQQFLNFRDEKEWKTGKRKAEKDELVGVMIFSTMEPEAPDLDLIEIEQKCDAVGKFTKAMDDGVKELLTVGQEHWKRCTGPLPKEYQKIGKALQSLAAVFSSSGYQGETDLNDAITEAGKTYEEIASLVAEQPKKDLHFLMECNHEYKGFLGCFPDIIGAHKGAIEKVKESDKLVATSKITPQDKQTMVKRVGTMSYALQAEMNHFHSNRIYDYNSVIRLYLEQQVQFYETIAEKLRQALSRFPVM
# [7] = molecular target: endogenous YEATS4 of mouse macrophages (BMDM, Raw264.7) (mouse, UniProt Q9CR11 1-227); assay: anti-His co-IP from BMDM treated with 1 ug/ml rRv3364c, anti-YEATS4 blot
# endogenous YEATS4 of mouse macrophages (BMDM, Raw264.7), sequence (Q9CR11 whole entry): as the sequence (O95619 whole entry) above, with A224T counted along it
# [8] = molecular target: T3, ZBTB46 (zinc finger and BTB …); assay: HuProt human proteome microarray, biotinylated rRv3364c, streptavidin Alexa Fluor 532
# [9] = molecular target: SNX9 (sorting nexin 9), full-length recombinant human protein on the HuProt microarray (human, UniProt Q9Y5X1 1-595); assay: as above
# SNX9 (sorting nexin 9), full-length recombinant human protein on the HuProt microarray, sequence (Q9Y5X1 whole entry, the tested form may be a part): as the sequence (Q9Y5X1 whole entry) above
# [10] = molecular target: YEATS4 (YEATS domain-containing protein 4), full-length recombinant human protein on the HuProt microarray (human, UniProt O95619 1-227); assay: as above
# YEATS4 (YEATS domain-containing protein 4), full-length recombinant human protein on the HuProt microarray, sequence (O95619 whole entry, the tested form may be a part): as the sequence (O95619 whole entry) above
molecule,measurement,setting,value
"Rv3364c: Rv3364c protein of Mycobacterium tuberculosis, expressed in 293T cells from a Flag-tagged plasmid",interaction between SNX9 and p47phox,[1],decreased as the amount of Rv3364c increased
DWLVSKFARE [Tat-Rv3364c (11DWLVSKFARE20)],blocking of the interaction between SNX9 and Rv3364c,"[2]; 293 cells with Myc-SNX9 and Flag-Rv3364c, peptide 5 μM, 12 hours",block the interaction between SNX9 and Rv3364c
MKARLPDSPL [Tat-Rv3364c (1MKARLPDSPL10)],blocking of the interaction between YEATS4 and Rv3364c,[3],block the interaction between YEATS4 and Rv3364c
WLVSKF (Rv3364c(12-17 aa)) [12WLVSKF17],region of Rv3364c required for interaction with SNX9,[2]; FIG. 5,minimum peptide essential for interaction with SNX9
B1,binding result,[4],no binding (tested: 1 ug/ml rRv3364c)
same,binding result,[5],no binding (tested: 1 ug/ml rRv3364c)
same,binding result,[6],binds
same,binding result,[7],binds
same,binding result,[8],binds
same,binding result,[9],binds
same,binding result,[10],binds
